Measurements reported in article PMC2113761.

Target: FITC-labeled porcine brain tubulin (porcine) (UniProt P02550)
Experiment: co-sedimentation

FITC-labeled porcine brain tubulin (from UniProt P02550 1-451) (complex)
fluorescence intensity (B/A) of the precipitate, labeled tubulin alone (6:0): 27.5
